Reference: the supplement of paper PMC9170038

Tested on: K4 kissing-loop RNA reporter
Experiment: apparent KD of K4 kissing-loop reporter; higher = weaker reporter binding
Settings: Eterna round: R107
Experimental: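 RNA-MaP round R107: designed RNA switches with theophylline, tryptophan, arginine or FMN aptamers are transcribed on-chip within common flanks. They are titrated with a labelled K4 kissing-loop RNA reporter in RNA-MaP buffer (100 mM Tris pH 7.5, 80 mM KCl, 4 mM MgCl2), without ligand or with the indicated ligand. Median apparent KD per design.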

[1] = input ligand: theophylline 20 uM
[2] = input ligand: tryptophan 2.4 mM
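Further: bound reporter read as fluorescence of individual clusters on recovered sequencing chips by microscopy, with normalized cluster intensities fitted with a binding model.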

Row | Sequence | apparent KD of K4 kissing-loop reporter (input ligand: FMN 200 uM) | apparent KD of K4 kissing-loop reporter (input ligand: arginine 13.2 mM) | apparent KD of K4 kissing-loop reporter (input ligand: none) | apparent KD of K4 kissing-loop reporter [1] | apparent KD of K4 kissing-loop reporter [2]
1 | AAACAUCACUGGGAGUGAUGUUCUCAGUGACGAGGACCGGUACGGCCGCCACUCGCGAGAGAUAUAGUUAAGUAAUGACUGCAUU [Excl Tryptophan A V7] | 324 nM | 251 nM | 294 nM | 333 nM | 324 nM
2 | CAUUCAGUGAUGUUGGAAGGCGAGCGGGAUACCAGCGGAGACUCACGCCCUUGGCAGCCCAUAUAUCCCAGGUAGAUAAUAGUUC [Same State - Theophylline A (Freestyle 5)] | 276 nM | 117 nM | 217 nM | 219 nM | 201 nM
3 | CCAUCGCUAUUCGAUACCAGUCAUCAAAUCUUUGGUUUGAUAAAGGAGUGAUGUUCCCAAGACCCUUGGCAGCGAAUAGUGAUGG [Theophylline B K4 10] | 252 nM | 212 nM | 224 nM | 175 nM | 230 nM
4 | AAGGGCAGGACUUCCUUGCCGGAUAGAGAUACCAGCCCAGCAAAGGGCCCUUGGCAGCUCACUGACCUCAGUGAUGUUGAGGUUC [Xebisoer] | 369 nM | 268 nM | 332 nM | 272 nM | 297 nM
5 | UAUGGCGAGGGCCGCAUAUCAUUAAACCAGAAGGAUAUAUGUUACUAUAGAAGGUCUGCCGCUGCGAGUGAUGUUUGGAGUGAUC [theeternabot_sameState_KL_FMN_A_3] | 326 nM | 195 nM | 260 nM | 242 nM | 229 nM
6 | UUUAAAUAUAGUGAUGUUAUAUAACAAUGACGAGGACCGGUACGGCCGCCACUCGAGAGAGAUAAUGGUCAUGCAAAUGUAUGUC [#15 K4 Tryptophan A Same State] | 674 nM | 684 nM | 789 nM | 746 nM | 615 nM
7 | CCAGUGAUAAACGAUACCAGAAAUACCUUAUUUGGCCGGCGGAGUGAUGUUCCUAAUACUUUCCCUUGGCAGCGUCGAAUGCUAG [theeternabot_sameState_KL_Theo_B_16] | 43.8 nM | 61.1 nM | 46 nM | 99 nM | 42.3 nM
8 | AUGCGCGCGGCGGCCGCCACUCGCAUGAGAGUGAUGUUCUCGCCGGGCCCGAAAGGGCCCGGUGUGAGGACCGGGCCGGGCUGCG [#2 Same State - Tryptophan B Attempt #15 (HarryS)] | 176 nM | 64.9 nM | 145 nM | 91.8 nM | 237 nM
9 | AAAUAGAUCAGUCAUCCAGUGAUGUUGGAAGGAGCGUGCGAAAGCACAGGUAGGUCGCCAAAAUAAAACUGGCUGAUCAAAAUAA | 292 nM | 292 nM | 338 nM | 453 nM | 270 nM
10 | GGACUCAAAUGUAGUGAUGUUACAAGCGAUACCAGUAUCUAACAUUACCCUUGGCAGCGCGCCCAGCUCAGCAAAUUAGAUAGCG [theeternabot_sameState_KL_Theo_A_43] | 149 nM | 204 nM | 178 nM | 268 nM | 114 nM
11 | CUUCAGAUCUGAAGGAGCGCGUUACCAGAAUGCAUCAUAGAGCAGUGAUGUUGCUCUGGAUCGCAGGUAGGUCGCAGAUCUGACG [Arg B Ex t7b] | 196 nM | 189 nM | 189 nM | 156 nM | 195 nM
12 | UGUCAUUGGUCGGCCGCCACUCCGUAACGAGUGAUGUUCUAAAAGACGGAUCGAAAGAUCUGUCGGAGGACCGGGACCGAUGACU [FiskerMod 7 - Jieux - Same State - Tryptophan B] | 725 nM | 149 nM | 448 nM | 199 nM | 900 nM
13 | AUGCGCGCGGCGGCCGCCACUCGCAUGAGAGUGAUGUUCUCACCGUGACCGUAAGGUCGCGGUGUGAGGACCGGGCCGGGCUGCG [#2 Same State - Tryptophan B Attempt #23 (HarryS)] | 28.4 nM | 72.7 nM | 245 nM | 281 nM | 118 nM
14 | UGACUGGACUGAAGGAGCGUUGAAGGAGCGUAGGCAGUGAUGUUGCCUACAGGUAGGUCGCAGCAGGUAGGUCGCAGUCUAGUCU [ArgBS 27 #DoubleAptamer #SwitchBubble] | 132 nM | 92.1 nM | 108 nM | 66.1 nM | 107 nM
15 | AAGCUACGCGCGGCCGCCACUGUUUAUGUAUAAAUGCGUCGCUCACUGCUUUAGUGAUGUUGAAGCAGGACCGGGCGAAUGGUAC [theeternabot_exclusion_KL_Trp_B_15] | 80.9 nM | 75 nM | 79.6 nM | 76.5 nM | 82.7 nM
16 | CUAUGGAAACAUAGUGAUCGGGAAACCGAUACCAGUAUGGAAACAUACCCUUGGCAGCGGAAUGAUCAAACGGAGUGAUGUUCCG [Theophylline A K4 21] | 459 nM | 318 nM | 648 nM | 278 nM | 288 nM
17 | UGACUGGACUGAAGGAGCGCUGAACUCCUAGUGAUGUUAGGACAACGAGACAAAGUCUCGCGGCAGGUAGGUCGCAGUCUAGUCU | 159 nM | 119 nM | 121 nM | 145 nM | 131 nM
18 | GCGAACAUUCGCAGUGAUGUUGCGACGGAAGGAGCGCGUGAAAACGCAGGUAGGUCGCCGACAUACUUAAUUUUACAGUGUUCGC [Arginine A K4 29] | 268 nM | 191 nM | 294 nM | 247 nM | 194 nM
19 | AUCACAGUGAUGUUGUGAUAUGGUACAGAUACCAGACUAGUGCUAGUCCCUUGGCAGCUGUACUCAGCAGCACCACUAGCACUCG [Theo A Ex t6b] | 147 nM | 131 nM | 145 nM | 153 nM | 128 nM
20 | AUUUUGAGUGAUGUUCAUAUCUAUUCUGAAGGAGCGCUAAAUAAGGCAGGUAGGUCGCGGAAUAUAUAUAUAUAUAUAUAUAUAU [KL-SSArg-A30] | 538 nM | 809 nM | 711 nM | 624 nM | 537 nM
21 | UGUCUGAUGGAAACAUCGGACUUUACUGAUACCAGUAUCGAUAGAUACCCUUGGCAGCAGAAUCAGUAAUAACGAGUGAUGUUCG [Ex Theophylline A K4 3] | 347 nM | 280 nM | 386 nM | 317 nM | 310 nM

Row | Sequence | apparent KD of K4 kissing-loop reporter (input ligand: FMN 200 uM) | apparent KD of K4 kissing-loop reporter (input ligand: arginine 13.2 mM) | apparent KD of K4 kissing-loop reporter (input ligand: none) | apparent KD of K4 kissing-loop reporter [1] | apparent KD of K4 kissing-loop reporter [2]
22 | CGGCGCGGCGCGGCCGCCACUGCGCCUGGGCGCUCGCCGAGUGAUGUUCGUCGGCGGUCGGGUGGCAGGACCGGGUGCCGGCCCG [BDazzled - #20 SS Tryptophan B] | 295 nM | 227 nM | 217 nM | 169 nM | 141 nM
23 | AUGUUGAGCGGAAGGAGCGGCUGAGCCAGUGAUGUUGGUUAAUCCAAGUGAUGUUGGAAAAGCCAGGUAGGUCGCCGCUUUACGU [whbob_SS_Arginine_B_2t144] | 1010 nM | 741 nM | 1040 nM | 926 nM | 832 nM
24 | AGACGCCAGUCGGCCGCCACUCACAGCAGUGAUGUUGCUGAAAAUCUAGAAGAGUGAUGUUCUUAGAGGACCGGGACUCCAGUCG [Same State Tryptophan B GF 6] | 162 nM | 153 nM | 169 nM | 141 nM | 172 nM
25 | AAAUAGAUCAGUCAUCCAGUGAUGUUGGAAGGAGCGUGCGAAAGCACAGGUAGGUCGCCGAAAUAAAAGUGGCUGAUCAAAAUAA | 128 nM | 216 nM | 143 nM | 193 nM | 102 nM
26 | GCGCGUCAUGUCAGCGGUGCCUAUGUCGAUACCAGCGCCGCAAGGCGCCCUUGGCAGCGACGCGCUGGAGUGAUGUUCCAGCGUG [#2 Exclusion - Theophylline A Attempt #11 (HarryS)] | 148 nM | 127 nM | 153 nM | 138 nM | 132 nM
27 | UCUGGUAUAUCUGAUACCAGAGUAUAGUAUCAAUUGCAUAUGGAGUGAUGUUCCAUAUAACUCCCUUGGCAGCAGAUCUAUCUCU [Same State Theophylline B GF 25] | 292 nM | 308 nM | 325 nM | 386 nM | 288 nM
28 | UCCUGCAAUCGACCACGAAAGUGGAUCGAUACCAGAGUCGAAAGACUCCCUUGGCAGCGAGUGAUGUUCGAAGCAGGUAAAUAAA [#SwitchBubble 22 #K4Late] | 520 nM | 383 nM | 453 nM | 464 nM | 383 nM
29 | UGAUAGGACAGAAGGAGCGGAGGUCGUCAAAGACGACCAAUAACGUUGAUAGGAGUGAUGUUCCAGGUAGGUCGCUGUCCUAUCU [ArgBX 29 #SwitchBubble #StaticStem] | 147 nM | 127 nM | 121 nM | 152 nM | 95.8 nM
30 | GGUAGCAUGGCGGCCGCCACUAAGAGAGUGAUGUUCUCUUAGUUUUUUGAUGUGUUAUCAAUUCUUAGGACCGGGCCAUGCUACC | 111 nM | 92.4 nM | 98.2 nM | 99.8 nM | 109 nM
31 | UCCGUUGCGGCGGCCGCCACUGACUUAUUGAUUAGGUUGCCAGUGAUGUUGGCCACCGGUCAAUACAGGACCGGGCCAUAGCGGG [Retive] | 160 nM | 208 nM | 259 nM | 148 nM | 110 nM
32 | UGACUGGACUGAAGGAGCGCUAAACUCCUAGUGAUGUUAGGAUAACGAGACAAAGUCUCGAAGCAGGUAGGUCGCAGUCUAGUCU | 149 nM | 110 nM | 117 nM | 133 nM | 128 nM
33 | AGUGGACAUGUCUAGAGUGAUGUUCUGGAUACCAGACACGAAAGUGUCCCUUGGCAGCCGGAGUGAUGUUCUGGCGUUCACUAAA [Omei KL Theo A Exc B v7] | 476 nM | 267 nM | 405 nM | 414 nM | 341 nM
34 | CCAACAACGAGUGAUGUUCGUUGAUCAGAAGGAGCGUCAAUAAUGACAGGUAGGUCGCUGAUAAUUGGAAAUAGGGCAAUAGCUU [Same State Arginine A GF12] | 110 nM | 113 nM | 115 nM | 120 nM | 105 nM
35 | AGACCACAAAGUGGUCAGUGUUCGCUGCAGCGAGGACCGGUACGGCCGCCACUCGCGAGUGAUGUUCGCGAGCGCAGCGAACACA [Omei KL Tryp A Exc A v5] | 95.9 nM | 68.1 nM | 92.6 nM | 75.6 nM | 114 nM
36 | AUGUAUGAAUUAGGAUAUCGUGAGCCUUGCAUAUAUAUGAUAAAUGGAUAUGUCGUAGUGAUGUUACGAGAAGGAGUGUGGAGUA [KL-XFMN-B4] | 45 nM | 61.6 nM | 45.5 nM | 71.2 nM | 39.1 nM
37 | ACGCGCGCGAGUGAUGUUCGGAGCGGCUGGCAGGAUAUGUAGCAAUGCAGAAGGGUCGUGGCGGGCGCGGCGAAAGCCGCGCCCG [#2 Exclusion - FMN A Attempt #6 (HarryS)] | 150 nM | 282 nM | 444 nM | 622 nM | 293 nM
38 | AAACGCUGGAUGAAUAACAUCUAGCGAAUUCGAGGACCGGUACGGCCGCCACUCGAGCUAACUGCGAGUGAUGUUCGAUAAUAAA [Mat - Mod of OpenEnded 3 - D1] | 306 nM | 451 nM | 441 nM | 524 nM | 80.9 nM
39 | AUAUUGGUUGAGAGUGAUGUUCCUUGUGUUCGAGGACCGGUACGGCCGCCACUCGGGUAGAAAAUAAAAGAUAUGUUUGAUUUUU [BDazzled - #12 SS Tryptophan A] | 162 nM | 29.1 nM | 242 nM | 943 nM | 279 nM
40 | UGACUGGACUGAAGGAGCGCUUAACUCCUAGUGAUGUUAGGACAACGAGACAAAGUCUCGAAGCAGGUAGGUCGCAGUCUAGUCU | 217 nM | 155 nM | 204 nM | 198 nM | 199 nM
41 | GGAUCCACCAGUGAUGUUGGAGAAAACUCUAAGGAUAUGACGAAAGUCAGAAGGUGGUAGACUGGACAAAGUCCGGUCGGAUCCA [FmnA 23 U30] | 1210 nM | 177 nM | 397 nM | 262 nM | 347 nM
42 | GAGAUAGCGACGGCCGCCACUAGUGAUGUUAGUGCUGGUAGAUAGAUACUGGAACAGAAAUGACGUAGGACCGGGUCAGAUAGAG [#01 K4 Tryptophan B Exclusion] | 264 nM | 233 nM | 292 nM | 334 nM | 247 nM
